These results are taken from article PMC3877283, “Development of Novel Radiogallium-Labeled Bone Imaging Agents Using Oligo-Aspartic Acid Peptides as Carriers” (PLoS ONE, 2013).

A short description of the data set: Biodistribution experiments in normal mice. The data set is classed as in vivo, ddY mice. The note with it: mouse, in vivo, iv. The protocol: Experiments with animals were conducted in strict accordance with the Guidelines for the Care and Use of Laboratory Animals of Kanazawa University. The animal experimental protocols used were approved by the Committee on Animal Experimentation of Kanazawa University (Permit Number: AP-132633). Biodistribution experiments were performed after an intravenous administration of each diluted tracer solution (37 kBq/100 µL) to 6-week-old male ddY mice (27–32 g, Japan SLC, Inc., Hamamatsu, Japan). To investigate the effect of an excess amount of bisphosphonate on biodistribution, alendronate (20 mg/kg) was intravenously administered to mice 1 minute before the intravenous injection of ^67Ga-DOTA-(Asp)14 or ^67Ga-DOTA-Bn-SCN-HBP. Four to six mice each were sacrificed by decapitation at 10, 60, and 180 minutes post-injection. Tissues of interest were removed and weighed. Complete left femurs were isolated as representative bone samples, radioactivity was determined using an auto well gamma counter, and counts were corrected for background radiation and physical decay during counting.

Peptide text beside a SMILES is read from it. * marks the point of attachment. DOTA = O=C(O)CN1CCN(CC(=O)O)CCN(CC(=O)*)CCN(CC(=O)O)CC1

For the molecule `O=C(O)C[C@H](NC(=O)[C@H](CC(=O)O)NC(=O)CN1CCN(CC(=O)O)CCN(CC(=O)O)CCN(CC(=O)O)CC1)C(=O)O` [67Ga-DOTA-(Asp)2, metal not drawn] ({DOTA}-Asp-Asp-OH), the “accumulation of radioactivity in the femur (in words)” value is reported as “hardly accumulated in the femur”.
On to `O=C(O)C[C@H](NC(=O)[C@H](CC(=O)O)NC(=O)[C@H](CC(=O)O)NC(=O)[C@H](CC(=O)O)NC(=O)[C@H](CC(=O)O)NC(=O)[C@H](CC(=O)O)NC(=O)[C@H](CC(=O)O)NC(=O)[C@H](CC(=O)O)NC(=O)CN1CCN(CC(=O)O)CCN(CC(=O)O)CCN(CC(=O)O)CC1)C(=O)O` [67Ga-DOTA-(Asp)8, metal not drawn] ({DOTA}-DDDDDDDD-OH), for which the “accumulation of radioactivity in the femur (in words)” value is reported as “higher accumulation”.
Next, `O=C(O)C[C@H](NC(=O)[C@H](CC(=O)O)NC(=O)[C@H](CC(=O)O)NC(=O)[C@H](CC(=O)O)NC(=O)[C@H](CC(=O)O)NC(=O)CN1CCN(CC(=O)O)CCN(CC(=O)O)CCN(CC(=O)O)CC1)C(=O)O` [67Ga-DOTA-(Asp)5, metal not drawn] ({DOTA}-DDDDD-OH): “moderate accumulation”.
